From the supplement of paper PMC9428881
± gives the standard error.

Experiment: background-corrected fluorescence of 3'-dye-labeled ssDNA relative to brightest sequence (3'-GCGCG) (fraction); higher = brighter dye fluorescence (less quenching)
How it was run: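 Subtracting background from unlabeled oligos and scaling to the brightest sequence gave the reported fluorescence. Single-stranded DNA bearing a 3' Cy3 or Cy5 dye next to each of 1024 permuted pentamers was assembled on glass slides by light-directed phosphoramidite synthesis. Following a 2 h r.t. acetonitrile wash, slides were scanned at 532 or 635 nm before and after overnight ethylenediamine/ethanol deprotection, and values were averaged over 10 features per array and at least 3 syntheses.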

Row | Sequence | background-corrected fluorescence (dye: Cy3 (3' terminal)) | background-corrected fluorescence (dye: Cy5 (3' terminal))
1 | TTTTTTGCTCATGCTGCTGATTTTTTTTTTTTTTTAGAAC [CAAGA] | 0.485 ± 0.022 | 0.358 ± 0.022
2 | TTTTTTGCTCATGCTGCTGCTTTTTTTTTTTTTTTAGAAA [AAAGA] | 0.64 ± 0.019 | 0.484 ± 0.055
3 | TTTTTTGCTGAGCAGCAGCATTTTTTTTTTTTTTTACTTT [TTTCA] | 0.519 ± 0.022 | 0.37 ± 0.022
4 | TTTTTTGCTGAGCAGCATCATTTTTTTTTTTTTTTACTTG [GTTCA] | 0.503 ± 0.019 | 0.4 ± 0.024
5 | TTTTTTGCTGAGCAGCATGATTTTTTTTTTTTTTTACTTC [CTTCA] | 0.405 ± 0.022 | 0.312 ± 0.027
6 | TTTTTTGCTGAGCAGCATGCTTTTTTTTTTTTTTTACTTA [ATTCA] | 0.493 ± 0.06 | 0.379 ± 0.027
7 | TTTTTTGCTGAGCATCAGCATTTTTTTTTTTTTTTACTGT [TGTCA] | 0.63 ± 0.027 | 0.45 ± 0.06
8 | TTTTTTGCTGAGCATCATCATTTTTTTTTTTTTTTACTGG [GGTCA] | 0.623 ± 0.022 | 0.481 ± 0.023
9 | TTTTTTGCTGAGCATCATGATTTTTTTTTTTTTTTACTGC [CGTCA] | 0.491 ± 0.033 | 0.365 ± 0.028
10 | TTTTTTGCTGAGCATCATGCTTTTTTTTTTTTTTTACTGA [AGTCA] | 0.654 ± 0.04 | 0.475 ± 0.024
11 | TTTTTTGCTGAGCATGAGCATTTTTTTTTTTTTTTACTCT [TCTCA] | 0.421 ± 0.0073 | 0.331 ± 0.022
12 | TTTTTTGCTGAGCATGATCATTTTTTTTTTTTTTTACTCG [GCTCA] | 0.571 ± 0.028 | 0.418 ± 0.03
13 | TTTTTTGCTGAGCATGATGATTTTTTTTTTTTTTTACTCC [CCTCA] | 0.378 ± 0.023 | 0.3 ± 0.044
14 | TTTTTTGCTGAGCATGATGCTTTTTTTTTTTTTTTACTCA | 0.482 ± 0.028 | 0.346 ± 0.028
15 | TTTTTTGCTGAGCATGCGCATTTTTTTTTTTTTTTACTAT [TATCA] | 0.531 ± 0.012 | 0.392 ± 0.021
16 | TTTTTTGCTGAGCATGCTCATTTTTTTTTTTTTTTACTAG [GATCA] | 0.554 ± 0.029 | 0.433 ± 0.025
17 | TTTTTTGCTGAGCATGCTGATTTTTTTTTTTTTTTACTAC [CATCA] | 0.477 ± 0.017 | 0.328 ± 0.035
18 | TTTTTTGCTGAGCATGCTGCTTTTTTTTTTTTTTTACTAA [AATCA] | 0.522 ± 0.0087 | 0.413 ± 0.021
19 | TTTTTTGCTGATCAGCAGCATTTTTTTTTTTTTTTACGTT [TTGCA] | 0.552 ± 0.018 | 0.433 ± 0.029
20 | TTTTTTGCTGATCAGCATCATTTTTTTTTTTTTTTACGTG [GTGCA] | 0.589 ± 0.022 | 0.472 ± 0.028
21 | TTTTTTGCTGATCAGCATGATTTTTTTTTTTTTTTACGTC [CTGCA] | 0.448 ± 0.016 | 0.373 ± 0.025
22 | TTTTTTGCTGATCAGCATGCTTTTTTTTTTTTTTTACGTA [ATGCA] | 0.61 ± 0.016 | 0.465 ± 0.024
23 | TTTTTTGCTGATCATCAGCATTTTTTTTTTTTTTTACGGT [TGGCA] | 0.664 ± 0.018 | 0.565 ± 0.045
24 | TTTTTTGCTGATCATCATCATTTTTTTTTTTTTTTACGGG [GGGCA] | 0.6553 ± 0.0063 | 0.579 ± 0.05
25 | TTTTTTGCTGATCATCATGATTTTTTTTTTTTTTTACGGC [CGGCA] | 0.594 ± 0.029 | 0.433 ± 0.049
26 | TTTTTTGCTGATCATCATGCTTTTTTTTTTTTTTTACGGA [AGGCA] | 0.683 ± 0.03 | 0.588 ± 0.029

Row | Sequence | background-corrected fluorescence (dye: Cy3 (3' terminal)) | background-corrected fluorescence (dye: Cy5 (3' terminal))
27 | TTTTTTGCTGATCATGAGCATTTTTTTTTTTTTTTACGCT [TCGCA] | 0.5 ± 0.065 | 0.391 ± 0.029
28 | TTTTTTGCTGATCATGATCATTTTTTTTTTTTTTTACGCG [GCGCA] | 0.973 ± 0.017 | 0.876 ± 0.027
29 | TTTTTTGCTGATCATGATGATTTTTTTTTTTTTTTACGCC [CCGCA] | 0.467 ± 0.021 | 0.393 ± 0.027
30 | TTTTTTGCTGATCATGATGCTTTTTTTTTTTTTTTACGCA | 0.525 ± 0.032 | 0.445 ± 0.028
31 | TTTTTTGCTGATCATGCGCATTTTTTTTTTTTTTTACGAT [TAGCA] | 0.519 ± 0.035 | 0.429 ± 0.045
32 | TTTTTTGCTGATCATGCTCATTTTTTTTTTTTTTTACGAG [GAGCA] | 0.62 ± 0.017 | 0.507 ± 0.078
33 | TTTTTTGCTGATCATGCTGATTTTTTTTTTTTTTTACGAC [CAGCA] | 0.486 ± 0.025 | 0.38 ± 0.035
34 | TTTTTTGCTGATCATGCTGCTTTTTTTTTTTTTTTACGAA [AAGCA] | 0.575 ± 0.032 | 0.452 ± 0.026
35 | TTTTTTGCTGATGAGCAGCATTTTTTTTTTTTTTTACCTT [TTCCA] | 0.463 ± 0.018 | 0.351 ± 0.018
36 | TTTTTTGCTGATGAGCATCATTTTTTTTTTTTTTTACCTG [GTCCA] | 0.499 ± 0.023 | 0.384 ± 0.02
37 | TTTTTTGCTGATGAGCATGATTTTTTTTTTTTTTTACCTC [CTCCA] | 0.438 ± 0.0039 | 0.271 ± 0.016
38 | TTTTTTGCTGATGAGCATGCTTTTTTTTTTTTTTTACCTA [ATCCA] | 0.449 ± 0.018 | 0.366 ± 0.019
39 | TTTTTTGCTGATGATCAGCATTTTTTTTTTTTTTTACCGT [TGCCA] | 0.624 ± 0.025 | 0.479 ± 0.034
40 | TTTTTTGCTGATGATCATCATTTTTTTTTTTTTTTACCGG [GGCCA] | 0.69 ± 0.03 | 0.551 ± 0.059
41 | TTTTTTGCTGATGATCATGATTTTTTTTTTTTTTTACCGC [CGCCA] | 0.592 ± 0.014 | 0.406 ± 0.026
42 | TTTTTTGCTGATGATCATGCTTTTTTTTTTTTTTTACCGA [AGCCA] | 0.601 ± 0.025 | 0.515 ± 0.031
43 | TTTTTTGCTGATGATGAGCATTTTTTTTTTTTTTTACCCT [TCCCA] | 0.446 ± 0.023 | 0.34 ± 0.021
44 | TTTTTTGCTGATGATGATCATTTTTTTTTTTTTTTACCCG [GCCCA] | 0.505 ± 0.03 | 0.411 ± 0.03
45 | TTTTTTGCTGATGATGATGATTTTTTTTTTTTTTTACCCC [CCCCA] | 0.358 ± 0.016 | 0.271 ± 0.027
46 | TTTTTTGCTGATGATGATGCTTTTTTTTTTTTTTTACCCA | 0.462 ± 0.029 | 0.351 ± 0.019
47 | TTTTTTGCTGATGATGCGCATTTTTTTTTTTTTTTACCAT | 0.499 ± 0.026 | 0.364 ± 0.024
48 | TTTTTTGCTGATGATGCTCATTTTTTTTTTTTTTTACCAG [GACCA] | 0.516 ± 0.024 | 0.378 ± 0.028
49 | TTTTTTGCTGATGATGCTGATTTTTTTTTTTTTTTACCAC [CACCA] | 0.405 ± 0.01 | 0.286 ± 0.018
50 | TTTTTTGCTGATGATGCTGCTTTTTTTTTTTTTTTACCAA [AACCA] | 0.485 ± 0.029 | 0.402 ± 0.022
51 | TTTTTTGCTGATGCGCAGCATTTTTTTTTTTTTTTACATT | 0.546 ± 0.011 | 0.384 ± 0.021
